Reference: paper PMC11058270, “Discovering a mitochondrion-localized BAHD acyltransferase involved in calystegine biosynthesis and engineering the production of 3β-tigloyloxytropane” (Nature Communications, 2024)

Tests used:
[1] = molecular target: T1, PcICS (isobutyryl CoA synthetase) (Pseudomonas chlororaphis, UniProt Q5CD72); assay: enzyme assay, MS detection of tigloyl-CoA; format: biochemical
T1 construct: gene acsA; purified recombinant protein; tag and host for purification not described in main text

[2] = molecular target: T2, TS (3β-tigloyloxytropane synthase; AbTS) (Atropa belladonna, UniProt A0AAF1BX09); assay: steady-state kinetics, LC-MS product analysis; format: biochemical; details: co-substrate 3β-tropanol; 50 mM glycine-NaOH pH 8.6, 30 °C
T2 construct: full-length codon-optimised CDS (TSopt) in pMAL-c5x, N-terminal MBP tag (cleavage not mentioned), E. coli BL21 (DE3), amylose resin
From the text: (§1) steady-state kinetics, LC-MS product analysis on TS (3β-tigloyloxytropane synthase; AbTS)

[3] = tested on: CN1[C@@H]2CC[C@H]1C[C@H](O)C2; assay: steady-state kinetics, LC-MS product analysis; format: biochemical, Atropa belladonna; details: acyl donor tigloyl-CoA, 50 mM glycine-NaOH pH 8.6, 30 °C
From the text: as §1

[4] = tested on: C/C=C(\C)C(=O)SCCNC(=O)CCNC(=O)[C@H](O)C(C)(C)COP(=O)(O)OP(=O)(O)OC[C@H]1O[C@@H](n2cnc3c(N)ncnc32)[C@H](O)[C@@H]1OP(=O)(O)O; assay: steady-state kinetics, LC-MS product analysis; format: biochemical, Atropa belladonna; details: co-substrate 3β-tropanol, 50 mM glycine-NaOH pH 8.6, 30 °C
From the text: as §1

[5] = tested on: CC(=O)SCCNC(=O)CCNC(=O)[C@H](O)C(C)(C)COP(=O)(O)OP(=O)(O)OC[C@H]1O[C@@H](n2cnc3c(N)ncnc32)[C@H](O)[C@@H]1OP(=O)(O)O; assay: steady-state kinetics, LC-MS product analysis; format: biochemical, Atropa belladonna; details: co-substrate 3β-tropanol, 50 mM glycine-NaOH pH 8.6, 30 °C
From the text: as §1

[6] = tested on: CC(C)(COP(=O)(O)OP(=O)(O)OC[C@H]1O[C@@H](n2cnc3c(N)ncnc32)[C@H](O)[C@@H]1OP(=O)(O)O)[C@@H](O)C(=O)NCCC(=O)NCCSC(=O)c1ccccc1; assay: steady-state kinetics, LC-MS product analysis; format: biochemical, Atropa belladonna; details: co-substrate 3β-tropanol, 50 mM glycine-NaOH pH 8.6, 30 °C
From the text: as §1

Molecule | Km [3] [µM] | kcat [3] [s⁻¹] | kcat/Km [3] [M⁻¹ s⁻¹] | Km [4] [µM] | kcat [4] [s⁻¹] | kcat/Km [4] [M⁻¹ s⁻¹] | Km [6] [µM] | kcat [6] [s⁻¹] | kcat/Km [6] [M⁻¹ s⁻¹] | also measured
CC(C)(COP(=O)(O)OP(=O)(O)OC[C@H]1O[C@@H](n2cnc3c(N)ncnc32)[C@H](O)[C@@H]1OP(=O)(O)O)[C@@H](O)C(=O)NCCC(=O)NCCS [CoA] | – | – | – | – | – | – | – | – | – | enzyme assay, MS detection of tigloyl-CoA ([1]; co-substrate tiglic acid): purified PcICS catalyzed the synthesis of tigloyl-CoA from CoA and tiglic acid
CC(=O)SCCNC(=O)CCNC(=O)[C@H](O)C(C)(C)COP(=O)(O)OP(=O)(O)OC[C@H]1O[C@@H](n2cnc3c(N)ncnc32)[C@H](O)[C@@H]1OP(=O)(O)O [acetyl-CoA] | – | – | – | – | – | – | – | – | – | Km [2]: 90 ± 20 µM
CC(C)(COP(=O)(O)OP(=O)(O)OC[C@H]1O[C@@H](n2cnc3c(N)ncnc32)[C@H](O)[C@@H]1OP(=O)(O)O)[C@@H](O)C(=O)NCCC(=O)NCCSC(=O)c1ccccc1 [benzoyl-CoA] | – | – | – | – | – | – | – | – | – | Km [2]: 920 ± 580 µM
C/C=C(\C)C(=O)O [tiglic acid] | – | – | – | – | – | – | – | – | – | enzyme assay, MS detection of tigloyl-CoA ([1]; co-substrate CoA): purified PcICS catalyzed the synthesis of tigloyl-CoA from CoA and tiglic acid
TS (3β-tigloyloxytropane synthase; AbTS) (Atropa belladonna) | 360 ± 50 | 6.84 ± 0.3 | 19000 ± 1660 | 20 ± 4 | 7.38 ± 0.25 | 338000 ± 49100 | – | – | – | –
TS (3β-tigloyloxytropane synthase; AbTS) (Atropa belladonna; F46I) | 320 ± 60 | 1.44 ± 0.09 | 4550 ± 594 | 410 ± 110 | 1.42 ± 0.17 | 3590 ± 570 | 370 ± 90 | 0.04 ± 0.004 | 99.3 ± 13.3 | Km [5]: 350 ± 120 µM; kcat [5]: 0.005 ± 0.0008 s⁻¹; kcat/Km [5]: 16.2 ± 3.42 M⁻¹ s⁻¹
TS (3β-tigloyloxytropane synthase; AbTS) (Atropa belladonna; F46I/S40T) | – | – | – | 150 ± 20 | 2.27 ± 0.1 | 14800 ± 1370 | 260 ± 80 | 0.08 ± 0.008 | 305 ± 54.1 | –
TS (3β-tigloyloxytropane synthase; AbTS) (Atropa belladonna; S40T) | 320 ± 70 | 11.1 ± 0.81 | 35200 ± 5480 | 20 ± 3 | 11.4 ± 0.34 | 572000 ± 72300 | 840 ± 380 | 0.03 ± 0.006 | 32.7 ± 6.77 | Km [5]: 70 ± 10 µM; kcat [5]: 0.09 ± 0.004 s⁻¹; kcat/Km [5]: 1190 ± 155 M⁻¹ s⁻¹
